The source of these data is US20090214427A1 (LICENTIA, published 2009).

B1: synthetic peptide HK2p06 (CYRMPTCMQRD) (peptide)
peptide: CYRMPTCMQRD
modifications: disulfide 1-7 (inferred)
notes: Two Cys residues, said to indicate a cyclic structure
B2: phage carrying peptide HK2p02 as part of pIII protein (peptide)
chain: AARRPFPAPS
notes: also called phage p02; HK2p02 phage clone (X10 library); not shown: pIII coat protein of fUSE-5 filamentous phage
B3: phage carrying peptide HK2p04 as part of pIII protein (peptide)
chain: CFRQGCWVIT
modifications: disulfide (positions not given here); also: displayed as fusion to phage pIII protein
notes: also called phage p04; HK2p04 phage clone (X10 library); not shown: pIII coat protein of fUSE-5 filamentous phage
B4: phage carrying peptide HK2p03 as part of pIII protein (peptide)
chain: PARRPFPVTA
notes: also called phage p03; HK2p03 phage clone (X10 library); not shown: pIII coat protein of fUSE-5 filamentous phage
B5: phage carrying peptide HK2p06 as part of pIII protein (peptide)
chain: CYRMPTCMQRD
modifications: disulfide (positions not given here); also: displayed as fusion to phage pIII protein
notes: also called phage p06; HK2p06 phage clone (X11 library); not shown: pIII coat protein of fUSE-5 filamentous phage

As usually defined, the inhibition is the change of the read-out against control, counted positive when it falls. Usually Ki stands for the equilibrium dissociation constant of an inhibitor or competing ligand from its target.

Positions of bridges follow the written chain, without caps; N, C: chain ends. Non-standard residues stand in square brackets, D forms with d. No end group written: not given here. Sar = CNCC(=O)O

One assay addresses T1, recombinant wild-type (wt) human kallikrein 2 (human, UniProt P20151 25-261). Kind of assay: cell-based or functional assay.
For the molecule GRRPAPG-OH [GRRPAPG (SEQ ID NO:43)], the inhibition worked out at 0%. Regarding AARRPFPG [AARRPFPG (SEQ ID NO:47)], the inhibition amounted to 28%. Consider SRAKVWWAAG-OH [SRAKVWWAAG (SEQ ID NO:58)], for which the inhibition stood at 0%.

Regarding ARFKVWWAAG (S1A variant of HK2p01) [ARFKVWWAAG (SEQ ID NO:56)], the inhibition amounted to 94%. Still for that read-out and setting: as for SRFKVWAAAG-OH [SRFKVWAAAG (SEQ ID NO:62)], the figure is 30%; as for GAARRPFPAPG [GAARRPFPAPG (SEQ ID NO:51)], 69%.

In the case of AAARRPFPG [AAARRPFPG (SEQ ID NO:48)], the inhibition was 37%. Still for that read-out and setting: as for AAARRPAPG [AAARRPAPG (SEQ ID NO:46)], the figure is 51%.

On to GAARR[Sar]FPAPG [GAARR-Sar-FPAPG (SEQ ID NO:52)], for which the inhibition came out at 0%.

Consider GAARRPF[Sar]APG [GAARRPF-Sar-APG (SEQ ID NO:53)], for which the inhibition was found to be 24%. Take SRFAVWWAAG-OH [SRFAVWWAAG (SEQ ID NO:59)]: the inhibition worked out at 0%. As for SRFKVAWAAG-OH [SRFKVAWAAG (SEQ ID NO:61)], the inhibition came to 10%. In the case of GAARR[Sar]F[Sar]APG [GAARR-Sar-F-Sar-APG (SEQ ID NO:54)], the inhibition amounted to 0%. With AARRPAPG-OH [AARRPAPG (SEQ ID NO:45)], the inhibition came out at 36%. The same measure, in the same setting: the result for SRFKAWWAAG-OH [SRFKAWWAAG (SEQ ID NO:60)] reads 39%. Take GRRPFPG-OH [GRRPFPG (SEQ ID NO:44)]: the inhibition was 0%.

The target in a further assay is T1, recombinant wild-type (wt) human …. Briefly: competition phage IFMA on hK2 captured by MAb 5E4; 5 µM synthetic peptide. How it is done: The phage IFMA was performed essentially as described (Wu, Leinonen et al. 2000). In this assay, 50 ng of hK2 in 200 μL of assay buffer was captured onto wells coated with MAb 5E4. After washing, 2.5 μL of phage (10⁸-10⁹ infectious particles) and 200 μL assay buffer were added to wells. After incubation for 1 h, the wells were washed and filled with 200 μL of assay buffer containing 100 ng Eu-labeled anti-phage polyclonal antibody recognizing the M13 coat protein of the phage. After incubation for 60 min, the wells were washed 4 times, and enhancement solution (Perkin Elmer-Wallac) was added. The fluorescence was quantified with a Victor fluorometer in time resolved mode (Perkin Elmer-Wallac).
The relative binding sites of the peptides on hK2 were mapped by competition experiments with chemically synthesized and phage peptides. The protocol was based on the IFMA method described above except that phages and the synthetic peptides were reacted together with hK2. Briefly, each of the synthetic peptides at 5 μM concentration was added into the wells in which hK2 had been captured by MAb 5E4. After incubation for 30 min each phage was added. After 1 h incubation, the wells were washed and the assay was as described above for IFMA.
As for B1, the binding result was “binds”.

A further assay has the same target. Kind of assay: cell-based or functional assay. This is another data set of the same source.
As to ARFKVWWAAG (S1A variant of HK2p01) [ARFKVWWAAG (SEQ ID NO:56)], the “IC50 for hK2 inhibition (cleavage of S-2302)” value was 2.2 µM. On the same count and under the same terms, the result for SRFKVWWAAG [synthetic peptide HK2p01 (SRFKVWWAAG)] reads 3.4 µM.

A further assay has the same target. Kind of assay: phage display selection on hK2 captured by MAb 5E4, four rounds. The method, then: The phage display libraries were constructed in fUSE-5-phage as previously described (Koivunen et al. 1994). We screened libraries with the structures CX₇C, CX₈C, X₉, X₁₀, X₁₁, CX₃CX₃CX₃C, CX₈, CX₉, X₂CX₁₁C, where C stands for cysteine and X for any of the randomly occurring amino acids. Screening was performed according to Koivunen et al. (Koivunen et al. 1994). We screened each peptide library against hK2, which was captured by MAb 5E4 coated into microtiter wells (Wu, Leinonen et al. 2000). MAb 5E4 binds PSA and hK2 in an equimolar manner and reacts with an epitope which is remote from the active site of these enzymes (Stenman et al. 1999), (Leinonen, Wu et al. 2002). Twenty four ng of hK2 was incubated in antibody-coated wells for 30 minutes at 37° C. in Tris/NaCl buffer followed by washing of unbound hK2. An aliquot of phage libraries containing 10¹⁰-10¹¹ transducing units was added into the microtiter wells in 100 μL of 1% BSA in TBS, which was composed of 0.05 mol/L Tris buffer (pH 7.7) containing 0.154 mol/L NaCl and 8 mmol/L NaN3. Incubation took place at 4° C. with gentle shaking for 16-24 hours in the first round and for 1 hour for the following three rounds. The phages were removed and wells were washed with TBS containing 0.5% Tween 20. For elution of the bound phage 0.1 M Glycine-HCl, pH 2.2 containing 0.1% BSA was added. The eluted phage suspension was neutralized with 1 M Tris buffer, pH 9.0, amplified by infection of Escherichia coli K91 cells and purified by polyethylene glycol precipitation (Wu, Leinonen et al. 2000). After four rounds of selection and amplification single stranded DNA from individual phage clones was prepared. The peptide sequences were determined after amplification by PCR (Koivunen et al. 2001). The relevant part of the viral DNA was sequenced with an ABI 310 Genetic analyzer and Dye Terminator Cycle Sequencing Core Kit (PE Applied Biosystems, Foster City, Calif., USA) using the primer 5′-TAATACGACTCACTATAGGGCAAGCTGATAAACCGATACAAT-3′ (SEQ ID NO: 130).
In the case of B2, the binding result is “binds”. On the same count and under the same terms, the result for B3 reads “binds”; that for B4, “binds”. On the same count and under the same terms, the result for B5 reads “binds”.

A further assay has the same target. Briefly: Lineweaver-Burke plots; cleavage of 0-400 µM S-2302 by 0.2 µM hK2 at 4 µM peptide.
For ARFKVWWAAG (S1A variant of HK2p01) [ARFKVWWAAG (SEQ ID NO:56)], the Ki was 1.41 µM.
